Changes are numbered by the printed parent chain.

Usually EC50 stands for the concentration needed to bring the measured effect to its halfway point. Read a high EC50 as lower potency in that assay.

Assay [1] addresses T1, human CLDN18.2 (hCLDN18.2), expressed on cells (human).
T1 construct: the constructs in the cell lines are not described; also called Claudin18.2; HEK293-hCLDN18.2
The assay is described as follows: FACS, SNU620 cells (endogenous CLDN18.2). A general note: Flow cytometry measures light scatter and fluorescence of single cells or particles in a stream.

Assay [2] deals with T1, human CLDN18.2 (hCLDN18.2), expressed …. Briefly: FACS, HEK293/hCLDN18.2 cells.
The target is the same in assay [3]. Briefly: FACS, HEK293/hCLDN18.2 cells; FACS, HEK293/hCLDN18.2 cells (stable over-expression).
For assay [4] the target is unchanged. Briefly: FACS, SNU620 cells (endogenous CLDN18.2); FACS, SNU620 cells (native CLDN18.2).
Assay [5] has the same target. The assay is described as follows: FACS, MFC cells over-expressing hCLDN18.2; MFC cells; second panel, run beside the hu22E12 H3 and H4 variants.
Assay [6] shares this target. The assay is described as follows: cell-based or functional assay.
For assay [7] the target is unchanged. The assay is described as follows: cell-based or functional assay. This is another data set of the same source.
Assay [8] has the same target. The assay is described as follows: FACS, MFC cells over-expressing hCLDN18.2; MFC cells; first panel, run beside the hu22E12 H1 and H2 variants.

B1: 97A9 (antibody, V domains shown)
VH: QVQLQQSGPELVKPGASMKLSCKASGYSFTRNDINWVKQRPGQGLEWIGLSYPRDGTTQYNGKFKGKATLTVDTSSSTAYMELRSLTSEDSAVYFCARGYYGNSFAYWGQGTLVTVSA
VL: DIVMTQSPSSLTVTAGEKVTMSCKSSQSLLNSGNQKNYLTWYQQKPGQPPKLLIYWASTRESGVPDRFTGSGSGTYFTLTISSVQAEDLAVYFCQNDYYFPYTFGGGTKLEIK
notes: mouse hybridoma antibody, purified; also called clone 97A9
In the case of B1, the 50% effective concentration (EC50) in assay [1] was determined as 3.3 nM; in assay [2], 1.6 nM.

B2: 22E12 (antibody, V domains shown)
VH: QVQLQQPGTELVKTGTSVKLSCKASGYTFTNWVHWVIQRPGQGLEWIGEINPTNGRSNYNEKFKKKATLTLDRSSTTAYMQLSSLTSEDSAVYFCAGIYYGNSFAHWGQGTLVTVSA
VL: B1 VL with M21L, A57S, Y76D, F93H, D97N, F100Y, Y102L, G106A, I112L
notes: mouse hybridoma antibody, purified; also called clone 22E12
Consider B2, for which the results for the EC50 in assay [1] and in assay [2] were 2.1 nM and 0.86 nM, respectively.

B3: 60F11 (antibody, V domains shown)
VH: QVQLQQPGAELVKPGASVKLSCKASGYTFTSYWMHWVKQRPGQGLEWIGMIHPNSGSTNYNEKFKSKATLTVDKSSSTAYMQLSSLTSEDSAVYYCARMGLGNAMDYWGQGTSVTVSS
VL: B1 VL with M21L, K36R, Y76D, F93Y, D97A, Y99S, F100Y, Y102L, G106A, I112L
notes: mouse hybridoma antibody, purified; also called clone 60F11
On to B3, for which the EC50 in assay [3] was 0.81 nM; in assay [4] it was 3.5 nM.

B4: 35B4 (antibody, V domains shown)
VH: EAKLVESGGDFMQPGGSLKLSCAASGFTLSSYALSWVRQTPEKRLEWVAYISNLGGSTFYPDTVKGRFTISRDNARNTLFLQMSSLQSEDTAIYYCATHLYNYDAFASWGQGTLVTVSA
VL: QIVLSQSPAILSASPGEKVTMTCRASSSVNYIHWYQQKPGSSPKAWIYATSNLASGVPTRFSGSGSGTSYSLTIDRVEAEDAATYYCQQWNSNPLTFGAGTKLELK
notes: mouse hybridoma antibody, purified; also called clone 35B4
Consider B4, for which the EC50 in assay [1] turned out to be 3.8 nM; in assay [2], 0.85 nM.

B5: 33G12 (antibody, V domains shown)
VH: EVKLVESGGGLVQPGGSLKLSCAASGFTFSRYAMSWVRQTPEKRLEWVAYISIGGTTYYPDTIKGRFTISRDNAKNTLYLQMSSLKSEDTAMYYCTRHYYGHDVMDYWGQGTSVTVSS
VL: B4 VL with A9T, S26T, N30S, I32M, Y35F, A45P, T59A, D75S, N91S, S92R
notes: mouse hybridoma antibody, purified; also called clone 33G12
For the molecule B5, the EC50 came to 1.1 nM in assay [1] and 0.56 nM in assay [2].

B6: IMAB362 (Zolbetuximab) (antibody, human IgG1, kappa, V domains shown)
VH: QVQLQQPGAELVRPGASVKLSCKASGYTFTSYWINWVKQRPGQGLEWIGNIYPSDSYTNYNQKFKDKATLTVDKSSSTAYMQLSSPTSEDSAVYYCTRSWRGNSFDYWGQGTTLTVSS
VL: DIVMTQSPSSLTVTAGEKVTMSCKSSQSLLNSGNQKNYLTWYQQKPGQPPKLLIYWASTRESGVPDRFTGSGSGTDFTLTISSVQAEDLAVYYCQNDYSYPFTFGSGTKLEIKR
For the molecule B6, the EC50 in assay [3] worked out at 0.71 nM; in assay [5] it was 42.7 nM; in assay [8], 23.5 nM. In addition, the “PBMC VS NUGC4 ADCC (EC50 nM)” value in assay [6] amounted to 25.1 nM. Moreover, in assay [7], the “ADCC EC50 (nM), NK-CD16a effector cells” value was 0.228 nM.

Values taken from US20240270839A1 (ELPISCIENCE SUZHOU BIOPHARMA, published 2024).
